The values that follow come from patent US20180002699.

The target in data set [1] is cyclin T1 (P-TEFb component), O60563.
The target of data set [2] is histone H3 (histones isolated from HEK293T cells).
The target of data set [3] is histone H1 (purified human histones isolated from HEK293T cells), P07305.
For data set [4], the target named is T1, full-length synthetic Tat protein (aa 1-72).
T1 chain: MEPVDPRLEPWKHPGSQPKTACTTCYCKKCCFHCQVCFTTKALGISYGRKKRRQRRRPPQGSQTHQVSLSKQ

Data set [5] concerns the target CDK9 (P-TEFb component), P50750.

Chain of CDK9 (P-TEFb component), P50750 (P50750 whole entry): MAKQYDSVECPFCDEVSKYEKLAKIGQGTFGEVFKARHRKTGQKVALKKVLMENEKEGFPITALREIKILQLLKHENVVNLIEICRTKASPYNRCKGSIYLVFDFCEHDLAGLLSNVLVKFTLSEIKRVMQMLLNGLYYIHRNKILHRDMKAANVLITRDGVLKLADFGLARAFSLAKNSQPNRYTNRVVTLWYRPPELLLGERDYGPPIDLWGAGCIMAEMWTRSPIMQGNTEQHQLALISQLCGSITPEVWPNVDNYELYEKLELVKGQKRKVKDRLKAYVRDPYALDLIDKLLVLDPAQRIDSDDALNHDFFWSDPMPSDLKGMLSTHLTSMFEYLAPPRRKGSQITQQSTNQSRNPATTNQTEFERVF
Chain of histone H1 (purified human histones isolated from HEK293T cells), P07305 (P07305 whole entry, looked up, the tested form may be a part): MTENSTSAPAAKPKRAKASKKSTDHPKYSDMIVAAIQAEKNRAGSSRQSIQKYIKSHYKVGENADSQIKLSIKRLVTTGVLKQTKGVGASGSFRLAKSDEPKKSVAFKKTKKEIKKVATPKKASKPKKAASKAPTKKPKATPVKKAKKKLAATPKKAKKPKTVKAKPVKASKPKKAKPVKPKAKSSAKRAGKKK
Chain of Sp1, P08047 (P08047 whole entry): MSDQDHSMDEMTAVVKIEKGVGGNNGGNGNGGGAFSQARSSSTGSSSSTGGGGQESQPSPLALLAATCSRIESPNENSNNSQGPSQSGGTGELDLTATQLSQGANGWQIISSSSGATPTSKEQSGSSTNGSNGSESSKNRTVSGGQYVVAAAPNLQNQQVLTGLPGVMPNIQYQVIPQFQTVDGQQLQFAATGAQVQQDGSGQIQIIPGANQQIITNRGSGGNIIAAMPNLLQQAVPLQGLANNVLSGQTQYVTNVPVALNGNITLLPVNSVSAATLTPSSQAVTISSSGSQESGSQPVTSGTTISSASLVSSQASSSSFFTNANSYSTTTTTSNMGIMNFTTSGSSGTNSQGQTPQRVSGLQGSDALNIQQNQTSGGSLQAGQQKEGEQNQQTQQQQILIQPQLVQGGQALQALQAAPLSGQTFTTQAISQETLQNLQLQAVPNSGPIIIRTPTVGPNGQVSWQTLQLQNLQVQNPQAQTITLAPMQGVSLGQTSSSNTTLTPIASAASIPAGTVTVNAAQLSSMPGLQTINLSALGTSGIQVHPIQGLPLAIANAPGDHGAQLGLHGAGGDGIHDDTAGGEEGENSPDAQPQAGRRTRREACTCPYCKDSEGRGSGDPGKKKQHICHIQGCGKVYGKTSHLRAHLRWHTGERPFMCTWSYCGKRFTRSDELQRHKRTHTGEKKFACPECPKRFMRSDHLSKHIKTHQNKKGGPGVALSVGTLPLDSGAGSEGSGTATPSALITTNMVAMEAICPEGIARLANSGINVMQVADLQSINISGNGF
Chain of NF-kB p65 (RelA), Q04206 (Q04206 whole entry): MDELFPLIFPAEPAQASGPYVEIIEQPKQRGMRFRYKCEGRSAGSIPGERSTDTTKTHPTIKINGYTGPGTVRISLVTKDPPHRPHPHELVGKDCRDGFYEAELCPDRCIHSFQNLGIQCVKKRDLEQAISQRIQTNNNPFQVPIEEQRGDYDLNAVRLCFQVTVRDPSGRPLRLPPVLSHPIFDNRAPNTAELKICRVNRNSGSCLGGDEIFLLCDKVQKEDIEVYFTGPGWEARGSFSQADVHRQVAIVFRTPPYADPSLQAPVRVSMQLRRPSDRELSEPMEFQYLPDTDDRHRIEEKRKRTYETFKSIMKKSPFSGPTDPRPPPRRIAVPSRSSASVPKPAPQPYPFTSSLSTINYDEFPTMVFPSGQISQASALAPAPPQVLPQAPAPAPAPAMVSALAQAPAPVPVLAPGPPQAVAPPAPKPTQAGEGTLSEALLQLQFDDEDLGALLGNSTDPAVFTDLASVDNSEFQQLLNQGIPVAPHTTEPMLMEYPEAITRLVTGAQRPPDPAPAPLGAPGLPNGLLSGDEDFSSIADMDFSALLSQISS
Chain of cyclin T1 (P-TEFb component), O60563 (O60563 whole entry): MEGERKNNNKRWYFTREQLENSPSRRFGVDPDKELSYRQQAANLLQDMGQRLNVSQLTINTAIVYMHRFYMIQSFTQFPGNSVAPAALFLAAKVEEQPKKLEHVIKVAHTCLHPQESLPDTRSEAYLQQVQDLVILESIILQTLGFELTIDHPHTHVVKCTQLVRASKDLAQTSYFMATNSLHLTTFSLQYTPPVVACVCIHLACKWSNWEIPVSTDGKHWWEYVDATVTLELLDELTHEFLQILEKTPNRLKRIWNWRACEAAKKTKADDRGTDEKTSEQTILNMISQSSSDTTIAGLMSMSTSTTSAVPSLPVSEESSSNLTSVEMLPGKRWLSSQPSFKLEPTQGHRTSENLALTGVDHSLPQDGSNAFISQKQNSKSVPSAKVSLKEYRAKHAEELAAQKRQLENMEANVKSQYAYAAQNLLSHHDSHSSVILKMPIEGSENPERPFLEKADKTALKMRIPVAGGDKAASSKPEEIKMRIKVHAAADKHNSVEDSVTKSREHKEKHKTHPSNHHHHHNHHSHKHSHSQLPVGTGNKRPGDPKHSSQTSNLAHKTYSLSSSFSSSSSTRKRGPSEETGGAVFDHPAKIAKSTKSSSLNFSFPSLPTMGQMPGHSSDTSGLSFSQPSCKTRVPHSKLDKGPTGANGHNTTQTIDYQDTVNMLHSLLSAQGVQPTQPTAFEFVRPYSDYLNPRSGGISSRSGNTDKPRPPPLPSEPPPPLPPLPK

B1: recombinant full-length SMYD5 (SET and MYND domain-containing protein 5) (protein)
chain: MAASMCDVFSFCVGVAGRARVSVEVRFVSSAKGKGLFATQLIRKGETIFVERPLVAAQFLWNALYRYRACDHCLRALEKAEENAQRLTGKPGQVLPHPELCTVRKDLHQNCPHCQVMYCSAECRLAATEQYHQVLCPGPSQDDPLHPLNKLQEAWRSIHYPPETASIMLMARMVATVKQAKDKDRWIRLFSQFCNKTANEEEEIVHKLLGDKFKGQLELLRRLFTEALYEEAVSQWFTPDGFRSLFALVGTNGQGIGTSSLSQWVHACDTLELKPQDREQLDAFIDQLYKDIEAATGEFLNCEGSGLFVLQSCCNHSCVPNAETSFPENNFLLHVTALEDIKPGEEICISYLDCCQRERSRHSRHKILRENYLFVCSCPKCLAEADEPNVTSEEEEEEEEEEEGEPEDAELGDEMTDV
Turning to B1, the “in vitro methylation (3H-SAM, autoradiography)” value in data set [1] was “no methylation was detected for Re1A, Sp1, cyclin T1 and CDK9”; in data set [2] it was “histones H3 and H1 were weakly and Tat strongly methylated by SMYD5”; in data set [3], “histones H3 and H1 were weakly and Tat strongly methylated by SMYD5”; in data set [4], “histones H3 and H1 were weakly and Tat strongly methylated by SMYD5”; in data set [5] it was “no methylation was detected for Re1A, Sp1, cyclin T1 and CDK9”; in the data set with NF-kB p65 (RelA), Q04206 it was “no methylation was detected for Re1A, Sp1, cyclin T1 and CDK9”. Also, the “in vitro methylation (3H-SAM, autoradiography)” value in the data set with Sp1, P08047 is “no methylation was detected for Re1A, Sp1, cyclin T1 and CDK9”. Moreover, in data set [4], the “LC-MS/MS of in vitro methylation products (non-radiolabeled SAM)” value was “This analysis identified a single site, trimethylation of K41, identified in two distinct peptides (not shown). No mono or dimethylation at Tat K41 was observed”.
